Test results published in the supplement of paper PMC10201428.
± gives the standard deviation of the averaged measurements.

Legend:
[1] = test system: VchCAST RNA-guided transposition machinery (E. coli BL21(DE3) host, lacZ target); assay: relative integration efficiency (T-RL orientation) vs wild-type transposon end (log2 (normalized fold change)); transposon end mutated: right end (5 bp flank + 75 bp right end); higher = more efficient transposition
Method in brief: (§1)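 Co-transformation of E. coli BL21(DE3) combined a pUC57 mini-transposon donor, holding barcoded pools of 1549 left-end or 1849 right-end variants, with a T7-driven plasmid encoding a CRISPR array, tniQ-cas8-cas7-cas6 and tnsA-tnsB-tnsC. After plating with 0.1 mM IPTG at 37°C for 18 h, input plasmids and genomic integration junctions were PCR-amplified and Illumina-sequenced across two biological output replicates, with four reference barcodes. Relative integration efficiency is the normalised, log-transformed output/input barcode fold change.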

[2] = test system: VchCAST RNA-guided transposition machinery (E. coli BL21(DE3) host, lacZ target); assay: relative integration efficiency (T-LR orientation) vs wild-type transposon end (log2 (normalized fold change)); transposon end mutated: right end (5 bp flank + 75 bp right end); higher = more efficient transposition
Method in brief: as §1

Sequence: ACATTTGTTGATACAACCATAAGTTGATATTTTCAACCATAAGTTGATATTTTTCACAACCATATATTGATATCTCCTCTGATCATAGTCAGACCAACATTGCTACGACCCGTATTCGCACCGACAC
- relative integration efficiency (log2) [1]: -0.102 ± 0.021
- relative integration efficiency (log2) [2]: -0.115 ± 0.22

Sequence: ACATTTGTTGATACAACCATAAGTTGATATTTTCAACCATAAGTTGATATTTTTCACACCCATAAATTGATAATTACTCTGATCATAGTCAGACCAACATTGCTACGACCCGTATTCGCACCGACAC
- relative integration efficiency (log2) [1]: 0.0466 ± 0.027
- relative integration efficiency (log2) [2]: -0.132 ± 0.17

Sequence: ACATTTGTTGATACAACCATAAGTTGATATTTTCAACCATAAGTTGATATTTTTCACACCCATAAATTGATATTGCCTCTGATCATAGTCAGACCAACATTGCTACGACCCGTATTCGCACCGACAC
- relative integration efficiency (log2) [1]: 0.348 ± 0.062
- relative integration efficiency (log2) [2]: 0.248 ± 0.18

Sequence: ACATTTGTTGATACAACCATAAGTTGATATTTTCAACCATAAGTTGATATTTTTCAGTGGGTATTTAACTATAACGCTCTGATCATAGTCAGACCAACATTGCTACGACCCGTATTCGCACCGACAC
- relative integration efficiency (log2) [1]: -0.302 ± 0.092
- relative integration efficiency (log2) [2]: 2.85 ± 0.1

Sequence: ACATTTGTTGATACAACCATAAGTTGATATTTTCAACCATATATTGATATCTCTCACAACCATAAAATGATAATTACTCTGATCATAGTCAGACCAACATTGCTACGACCCGTATTCGCACCGACAC
- relative integration efficiency (log2) [1]: -0.54 ± 0.12
- relative integration efficiency (log2) [2]: -0.461 ± 0.17

Sequence: ACATTTGTTGATACAACCATAAGTTGATATTTTCAACCATATATTGATATCTCTCACAACCATAAAGTGATATTTACTCTGATCATAGTCAGACCAACATTGCTACGACCCGTATTCGCACCGACAC
- relative integration efficiency (log2) [1]: -0.324 ± 0.14
- relative integration efficiency (log2) [2]: -0.077 ± 0.032

Sequence: ACATTTGTTGATACAACCATAAGTTGATATTTTCAACCATATATTGATATCTCTCACAACCATAAGTTGATATTTTCTCTGATCATAGTCAGACCAACATTGCTACGACCCGTATTCGCACCGACAC
- relative integration efficiency (log2) [1]: -0.118 ± 0.16
- relative integration efficiency (log2) [2]: -0.0553 ± 0.32

Sequence: ACATTTGTTGATACAACCATAAGTTGATATTTTCAACCATATATTGATATCTCTCACAACCATATATTGATATCTCCTCTGATCATAGTCAGACCAACATTGCTACGACCCGTATTCGCACCGACAC
- relative integration efficiency (log2) [1]: -0.28 ± 0.11
- relative integration efficiency (log2) [2]: 0.206 ± 0.098

Sequence: ACATTTGTTGATACAACCATAAGTTGATATTTTCAACCATATATTGATATCTCTCACACCCATAAATTGATAATTACTCTGATCATAGTCAGACCAACATTGCTACGACCCGTATTCGCACCGACAC
- relative integration efficiency (log2) [1]: -0.464 ± 0.15
- relative integration efficiency (log2) [2]: 0.134 ± 0.11

Sequence: ACATTTGTTGATACAACCATAAGTTGATATTTTCAACCATATATTGATATCTCTCACACCCATAAATTGATATTGCCTCTGATCATAGTCAGACCAACATTGCTACGACCCGTATTCGCACCGACAC
- relative integration efficiency (log2) [1]: -0.363 ± 0.0055
- relative integration efficiency (log2) [2]: -0.117 ± 0.12

Sequence: ACATTTGTTGATACAACCATAAGTTGATATTTTCAACCATATATTGATATCTCTCAGTGGGTATTTAACTATAACGCTCTGATCATAGTCAGACCAACATTGCTACGACCCGTATTCGCACCGACAC
- relative integration efficiency (log2) [1]: -1.15 ± 0.24
- relative integration efficiency (log2) [2]: 2.4 ± 0.039

Sequence: ACATTTGTTGATACAACCATAAGTTGATATTTTCACCCATAAATTGATAATTATCACAACCATAAAATGATAATTACTCTGATCATAGTCAGACCAACATTGCTACGACCCGTATTCGCACCGACAC
- relative integration efficiency (log2) [1]: -0.0424 ± 0.077
- relative integration efficiency (log2) [2]: -0.584 ± 0.047

Sequence: ACATTTGTTGATACAACCATAAGTTGATATTTTCACCCATAAATTGATAATTATCACAACCATAAAGTGATATTTACTCTGATCATAGTCAGACCAACATTGCTACGACCCGTATTCGCACCGACAC
- relative integration efficiency (log2) [1]: -0.345 ± 0.068
- relative integration efficiency (log2) [2]: -0.211 ± 0.3

Sequence: ACATTTGTTGATACAACCATAAGTTGATATTTTCACCCATAAATTGATAATTATCACAACCATAAGTTGATATTTTCTCTGATCATAGTCAGACCAACATTGCTACGACCCGTATTCGCACCGACAC
- relative integration efficiency (log2) [1]: -0.215 ± 0.056
- relative integration efficiency (log2) [2]: -0.0829 ± 0.01

Sequence: ACATTTGTTGATACAACCATAAGTTGATATTTTCACCCATAAATTGATAATTATCACAACCATATATTGATATCTCCTCTGATCATAGTCAGACCAACATTGCTACGACCCGTATTCGCACCGACAC
- relative integration efficiency (log2) [1]: -0.64 ± 0.15
- relative integration efficiency (log2) [2]: -0.455 ± 0.14

Sequence: ACATTTGTTGATACAACCATAAGTTGATATTTTCACCCATAAATTGATAATTATCACACCCATAAATTGATAATTACTCTGATCATAGTCAGACCAACATTGCTACGACCCGTATTCGCACCGACAC
- relative integration efficiency (log2) [1]: 2.44 ± 0.29
- relative integration efficiency (log2) [2]: 2.73 ± 0.044

Sequence: ACATTTGTTGATACAACCATAAGTTGATATTTTCACCCATAAATTGATAATTATCACACCCATAAATTGATATTGCCTCTGATCATAGTCAGACCAACATTGCTACGACCCGTATTCGCACCGACAC
- relative integration efficiency (log2) [1]: 0.0993 ± 0.059
- relative integration efficiency (log2) [2]: -0.177 ± 0.84

Sequence: ACATTTGTTGATACAACCATAAGTTGATATTTTCACCCATAAATTGATAATTATCAGTGGGTATTTAACTATAACGCTCTGATCATAGTCAGACCAACATTGCTACGACCCGTATTCGCACCGACAC
- relative integration efficiency (log2) [1]: -1 ± 0.34
- relative integration efficiency (log2) [2]: 2.55 ± 0.051
